Measured values from patent publication US20120128661A1 (ALETHIA BIOTHERAPEUTICS, published 2012).
Several values for one entry are separate records, joined by “and”; a condition that tells them apart may be missing. Equal entries are not always repeated. Where two headings read alike, the source gives them in different places.

T1: recombinant Fc-KAAG1 fusion protein (full-length human KAAG1 fused to human Fc, from pYD5-0447 in 293E cells) (human, UniProt Q9UBP8 1-84, biotinylated with NHS-biotin for the ELISA (sites not given))
T1 construct: Order of parts follows the printed name Fc-KAAG1; also called recombinant KAAG1; not shown: its limits and the linker to KAAG
T1 sequence: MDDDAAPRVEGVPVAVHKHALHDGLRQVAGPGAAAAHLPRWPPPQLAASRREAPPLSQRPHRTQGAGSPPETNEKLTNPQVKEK

T2: Fc-fused truncated mutant of KAAG1 spanning amino acids 1-35 (human)
T2 construct: Made and purified like the full-length Fc-KAAG1; also called KAAG1 1-35
T2 chain: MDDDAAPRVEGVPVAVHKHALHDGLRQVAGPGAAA

T3: monomeric recombinant KAAG1 (human, UniProt Q9UBP8 1-84, limits assumed)
T3 construct: Analyte of the Biacore experiment
T3 sequence: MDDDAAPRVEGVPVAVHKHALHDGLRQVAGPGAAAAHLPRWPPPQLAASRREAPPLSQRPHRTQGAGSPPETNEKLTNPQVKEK


Legend:
[1] = target: Fc-0447 1-60 (human) (UniProt Q9UBP8); assay: ELISA, Fab plate on Fc-0447 1-60
[2] = target: T1, recombinant Fc-KAAG1 fusion protein …; assay: ELISA, 1 ng Fab/well on Fc-KAAG1 [D00012 Figure 7C]
Method: (§1) The 96-well master plate of monoclonal preparations contained different concentrations of purified anti-KAAG1 Fabs in each well. A second stock master plate was prepared by diluting the Fabs to a final concentration of 10 μg/ml from which all subsequent dilutions were performed for ELISA measurements. To carry out the binding of Fc-KAAG1 to the monoclonal preparations, the Fc-KAAG1 was biotinylated with NHS-biotin (Pierce, Rockford, Ill.) and 10 ng/well was coated in a streptavidin 96-well plate. One nanogram of each Fab monoclonal preparation was added to each well and incubated at room temperature for 30 minutes. Bound antibody was detected with HRP-conjugated mouse anti-kappa light chain antibody in the presence of TMB liquid substrate (Sigma-Aldrich Canada Ltd., Oakville, ON) and readings were conducted at 450 nm in microtiter plate reader.

[3] = target: T1, recombinant Fc-KAAG1 fusion protein …; assay: ELISA on recombinant Fc-KAAG1
Method: as §1
Expression of human IgG1s in 293E cells—The expression vectors prepared above that encoded the light and heavy chain immunoglobulins were expressed in 293E cells using the transient transfection system (Durocher et al., 2002). The methods used for co-transfecting the light and heavy chain expression vectors were described in Example 5. […] The ability of the chimeric anti-KAAG1 monoclonal antibodies to bind to recombinant Fc-KAAG1 was measured in the ELISA and compared with the original mouse Fabs. The method was described in Example 5. […]

[4] = target: T2, Fc-fused truncated mutant of KAAG1 …; assay: ELISA, Fab plate on Fc-0447 1-35
[5] = target: T1, recombinant Fc-KAAG1 fusion protein …; assay: ELISA on recombinant Fc-KAAG1; remark: listed apart in the source
[6] = target: T3, monomeric recombinant KAAG1; assay: SPR (Biacore), antibody captured on anti-human Fc, monomeric KAAG1 injected, 1:1 model
Method: (§2) More precise measurements were conducted using Surface Plasmon Resonance (SPR) in a Biacore instrument. Kinetic analysis was used to compare the affinity of the chimeric 3D3 with the h3D3 as well as with hybrid antibodies encompassing different permutations of the light and heavy chains (see FIG. 18B). Briefly, anti-human Fc was immobilized on the Biacore sensor chip and chimeric or h3D3 was captured on the chip. Different concentrations of monomeric recombinant KAAG1 were injected and the data were globally fitted to a simple 1:1 model to determine the kinetic parameters of the interaction.

[7] = target: T3, monomeric recombinant KAAG1; assay: SPR (Biacore); antibody captured on anti-human Fc, monomeric KAAG1 injected, 1:1 fit, average KD; chimeric 3D3 tabulated as m3D3 in FIG. 18B
Method: as §2

[8] = target: T3, monomeric recombinant KAAG1; assay: SPR (Biacore); antibody captured on anti-human Fc, monomeric KAAG1 injected, 1:1 fit, average KD; chimeric light + chimeric heavy chain co-expressed, 'CC' of the permutation set
Method: as §2

[9] = target: T3, monomeric recombinant KAAG1; assay: SPR (Biacore); antibody captured on anti-human Fc, monomeric KAAG1 injected, 1:1 fit, average KD; humanized light chain, chimeric heavy chain (HC)
Method: as §2

[10] = target: T3, monomeric recombinant KAAG1; assay: SPR (Biacore); antibody captured on anti-human Fc, monomeric KAAG1 injected, 1:1 fit, average KD; chimeric light chain, humanized heavy chain (CH)
Method: as §2

[11] = target: T3, monomeric recombinant KAAG1; assay: SPR (Biacore); antibody captured on anti-human Fc, monomeric KAAG1 injected, 1:1 fit, average KD; humanized light and heavy chains (HH)
Method: as §2

Binder | OD450 [2] | Ka [6] | koff [6] | kon [6] | further results
3C4 mouse anti-KAAG1 Fab (Fab, V domains shown, Recombinant mouse Fab made in E. coli; also called 3C4 Fab) VH: EVQLQESGPDLVKPSQSLSLTCTVTGFSITSGYGWHWIRQFPGNKLEWMGYINYDGHNDYNPSLKSRISITQDTSKNQFFLQLNSVTTEDTATYYCASSYDGLFAYWGQGTLVTVSA VL: DIVMSQSPSSMYASLGERVTITCKASQDIHNFLNWFQQKPGKSPKTLIFRANRLVDGVPSRFSGSGSGQDYSLTISSLEFEDLGIYSCLQYDEIPLTFGAGTKLELR | 0.25 OD450 | – | – | – | OD450 [1]: 0.57 OD450
3D3 mouse anti-KAAG1 Fab (Fab, V domains shown, Recombinant mouse Fab made in E. coli; also called 3D3 Fab) VH: EVQLQQSVAELVRPGASVTLSCKASGYIFTDYEIHWVKQTPVHGLEWIGVIDPETGNTAFNQKFKGKATLTADISSSTAYMELSSLTSEDSAVYYCMGYSDYWGQGTTLTVSS VL: DIVMTQSPSSLAVSIGQKVTMNCKSSQSLLNSNFQKNFLAWYQQKPGQSPKLLIYFASTRESSIPDRFIGSGSGTDFTLTISSVQAEDLADYFCQQHYSTPLTFGAGTKLELK | 1.21 OD450 | – | – | – | OD450 [1]: 1.33 OD450; EC50 (read off the curve) [3]: ~0.5 µg/mL
anti-KAAG1 Fab of well E10 (plate from Omniclonal library #3) (Fab, V domains shown) VH: EVQLQQSGPELVKPGASVKISCKASGDTFTDYYMNWVKQSHGKSLEWIGDINPNYGGITYNQKFKGKATLTVDTSSSTAYMELRGLTSEDSAVYYCQAYYRNSDYWGQGTTLTVSS VL: DIVMTQAAPSVPVTPGESVSISCRSSKSLLHSNGNTYLYWFLQRPGQSPQLLIYRMSNLASGVPDRFSGSGSGTAFTLRISRVEAEDVGVYYCMQHLEYPYTFGGGTKLEIK | 0.02 OD450 | – | – | – | OD450 [1]: -0.02 OD450; OD450 [4]: 0.33 OD450
anti-KAAG1 Fab of well C2 (plate from Omniclonal library #3) (Fab, V domains shown) VH: DVQLQESGPDLVKPSQSLSLTCTVTGFSITSGYGWHWIRQFPGNKLEWMGYISFNGDSNYNPSLKSRISITRDTSKNQFFLQLNSVTSEDTATYYCASSYDGLFAYWGQGPLVTVSA VL: DIQMTQSPSSMYASLGERVTLTCKASQDIHNYLNWFQQKPGKSPKTLIHRANRLVAGVPSRFSGSGSGQDYSLTISSLEYEDLGIYYCLQYDAFPLTFGAGTKLELK | 0.32 OD450 | – | – | – | OD450 [4]: 1.97 OD450
anti-KAAG1 Fab of well D1 (plate from Omniclonal library #3) (Fab, V domains shown) VH: EVQLQESGPDLVKPSQSLSLTCTVTGFSITSGYGWHWIRQFPGDKLEWMGYISFNGDYNYNPSLKSRISITRDTSKNQFFLQLSSVTTEDTATYYCASSYDGLFAYWGQGTLVTVSA VL: DIKMTQSPSSMYASLGERVTITCKASQDIHTYLNWFQQKPGKSPETLIYRANRLVDGVPSRFSGSGSGQDYSLTISSLEYEDMGIYYCLQYDEFPLTFGAGTKLELK | 0.15 OD450 | – | – | – | OD450 [4]: 1.21 OD450
3D3 mouse-human chimeric IgG1 anti-KAAG1 monoclonal antibody (antibody, V domains shown, Mouse variable regions on human IgG1 and kappa constant regions, made in 293E cells; In the Biacore experiment two KD values are told for this composition, under the labels m3D3 and CC; also called chimeric 3D3; m3D3) VH: EVQLQQSVAELVRPGASVTLSCKASGYIFTDYEIHWVKQTPVHGLEWIGVIDPETGNTAFNQKFKGKATLTADISSSTAYMELSSLTSEDSAVYYCMGYSDYWGQGTTLTVSS VL: DIVMTQSPSSLAVSIGQKVTMNCKSSQSLLNSNFQKNFLAWYQQKPGQSPKLLIYFASTRESSIPDRFIGSGSGTDFTLTISSVQAEDLADYFCQQHYSTPLTFGAGTKLELKA | – | 4.5e+09 M⁻¹ and 2.71e+09 M⁻¹ | 0.00065 s⁻¹ and 0.00073 s⁻¹ | 2.91e+06 M⁻¹ s⁻¹ and 1.98e+06 M⁻¹ s⁻¹ | EC50 (read off the curve) [5]: ~0.4 µg/mL; Kd [6]: 368 pM; Kd [7]: 235 pM; Kd [8]: 271 pM
3D3 hybrid antibody: humanized light chain expressed with the chimeric heavy chain (antibody, V domains shown, also called HC) VH: EVQLQQSVAELVRPGASVTLSCKASGYIFTDYEIHWVKQTPVHGLEWIGVIDPETGNTAFNQKFKGKATLTADISSSTAYMELSSLTSEDSAVYYCMGYSDYWGQGTTLTVSS VL: DIVMTQSPDSLAVSLGERATINCKSSQSLLNSNFQKNFLAWYQQKPGQPPKLLIYFASTRESSVPDRFSGSGSGTDFTLTISSLQAEDVAVYYCQQHYSTPLTFGQGTKLEIKR | – | 3.24e+09 M⁻¹ | 0.00073 s⁻¹ | 2.36e+06 M⁻¹ s⁻¹ | Kd [9]: 309 pM
3D3 hybrid antibody: chimeric light chain expressed with the humanized heavy chain (antibody, human IgG1, V domains shown) VH: EVQLVQSGAEVKKPGASVKVSCKASGYIFTDYEIHWVRQAPGQGLEWMGVIDPETGNTAFNQKFKGRVTITADTSTSTAYMELSSLTSEDTAVYYCMGYSDYWGQGTLVTVSS VL: DIVMTQSPSSLAVSIGQKVTMNCKSSQSLLNSNFQKNFLAWYQQKPGQSPKLLIYFASTRESSIPDRFIGSGSGTDFTLTISSVQAEDLADYFCQQHYSTPLTFGAGTKLELKA | – | 1.98e+09 M⁻¹ | 0.00111 s⁻¹ | 2.2e+06 M⁻¹ s⁻¹ | Kd [10]: 505 pM
humanized 3D3 anti-KAAG1 antibody (human IgG1) (antibody, V domains shown, The residues before them (leader) are left out on that ground; also called h3D3; HH) VH: EVQLVQSGAEVKKPGASVKVSCKASGYIFTDYEIHWVRQAPGQGLEWMGVIDPETGNTAFNQKFKGRVTITADTSTSTAYMELSSLTSEDTAVYYCMGYSDYWGQGTLVTVSS VL: DIVMTQSPDSLAVSLGERATINCKSSQSLLNSNFQKNFLAWYQQKPGQPPKLLIYFASTRESSVPDRFSGSGSGTDFTLTISSLQAEDVAVYYCQQHYSTPLTFGQGTKLEIKR | – | 2.28e+09 M⁻¹ | 0.00111 s⁻¹ | 2.53e+06 M⁻¹ s⁻¹ | Kd [11]: 439 pM
3G10 mouse anti-KAAG1 Fab (Fab, V domains shown, Recombinant mouse Fab made in E. coli; also called 3G10 Fab) VH: EIQLQQSGPELVKPGASVKISCKASGYTFTDNYMNWVKQSHGKSLEWIGDINPYYGTTTYNQKFKGKATLTVDKSSRTAYMELRGLTSEDSAVYYCARDDWFDYWGQGTLVTVSA VL: DVLMTQTPRSLSVSLGDQASISCRSSQSLLHSNGNTYLEWYLQKPGQPPKVLIYKVSNRFSGVPDRFSGSGSGTDFTLKISGVEAEDLGVYYCFQGSHVPLTFGAGTKLELK | 2.78 OD450 | – | – | – | –
G12 (Fab, V domains shown) VH: EVQLQQSVAELVRPGASVTVSCKASGYIFTDYEIHWVKQTPAHGLEWIGVIDPETGNTAFNQKFKGKATLTADISSSTAYMELSSLTSEDSAVYYCMGYSDYWGQGTTLTVSS VL: DIVMTQSPKFMSTSVGDRVSITCKASQDVGTAVAWYQQKPGQSPELLIYWTSTRHTGVPDRFSGSGSGTDFTLTISSVQAEDLADYFCQQHYSIPLTFGAGTKLELR | 1.38 OD450 | – | – | – | –
